Series [1] concerns the target T1, human p53 (hp53) (Homo sapiens, UniProt P04637 1-393). Put plainly: EMSA (GA cross-linked, IR dye); 25 mM Tris-HCl pH 7.5, 2 mM DTT, 100 mM NaCl, 1 mM ADP, 5 mM MgCl2 (or 20 mM HEPES pH 7.5, 10 mM ADP), 25 C, then 0.025% glutaraldehyde 20 min; 'weaker' refers. The conditions noted are these: protein: recombinant; chain copies: 4; label: 5' IR800 both strands; blunt.

The target in series [2] is T2, murine p53 (mp53) (mouse, UniProt P02340 1-390). Described as above. The conditions noted are these: protein: recombinant; chain copies: 4; label: 5' IR800 both strands; blunt.
Series [3] deals with mp53Δ30 (mouse, UniProt P02340 1-360). Described as above. The conditions noted are these: protein: recombinant; chain copies: 4; label: 5' IR800 both strands; blunt.
In series [4] the target is T2, murine p53 (mp53). The experiment in a line: EMSA (GA cross-linked SDS-PAGE); 25 mM Tris-HCl pH 7.5, 2 mM DTT, 100 mM NaCl, 1 mM ADP, 5 mM MgCl2 (or 20 mM HEPES pH 7.5, 10 mM ADP), 25 C, then 0.025% glutaraldehyde 20 min; 'weaker' refers. The conditions noted are these: protein: recombinant, chain copies: 4.
Series [5] deals with mp53 R273H (mouse, UniProt P02340 1-390, R270H). The experiment in a line: EMSA (GA cross-linked, IR dye); 25 mM Tris-HCl pH 7.5, 2 mM DTT, 100 mM NaCl, 1 mM ADP, 5 mM MgCl2 (or 20 mM HEPES pH 7.5, 10 mM ADP), 25 C, then 0.025% glutaraldehyde 20 min; 'weaker' refers. The conditions noted are these: protein: recombinant, chain copies: 4.
Series [6] addresses T1, human p53 (hp53). Put plainly: EMSA (GA cross-linked SDS-PAGE); 25 mM Tris-HCl pH 7.5, 2 mM DTT, 100 mM NaCl, 1 mM ADP, 5 mM MgCl2 (or 20 mM HEPES pH 7.5, 10 mM ADP), 25 C, then 0.025% glutaraldehyde 20 min; 'weaker' refers. The conditions noted are these: protein: recombinant, chain copies: 4. Background: Mobility shift assays separate free from complexed probe on a gel.
The target in series [7] is T1, human p53 (hp53). Put plainly: EMSA (GA cross-linked SDS-PAGE); multiple tetramers; 25 mM Tris-HCl pH 7.5, 2 mM DTT, 100 mM NaCl, 1 mM ADP, 5 mM MgCl2 (or 20 mM HEPES pH 7.5, 10 mM ADP), 25 C, then 0.025% glutaraldehyde 20 min; 'weaker' refers. The conditions noted are these: protein: recombinant; chain copies: 4; blunt.
Series [8] deals with T2, murine p53 (mp53). Described as above. The conditions noted are these: protein: recombinant; chain copies: 4; blunt.
Series [9] concerns the target T2, murine p53 (mp53). Put plainly: EMSA (GA cross-linked SDS-PAGE); among most efficient; 25 mM Tris-HCl pH 7.5, 2 mM DTT, 100 mM NaCl, 1 mM ADP, 5 mM MgCl2 (or 20 mM HEPES pH 7.5, 10 mM ADP), 25 C, then 0.025% glutaraldehyde 20 min; 'weaker' refers. The conditions noted are these: protein: recombinant; chain copies: 4.
Series [10] has as its target T1, human p53 (hp53). Put plainly: EMSA (GA cross-linked SDS-PAGE); increased vs 2 bp spacer; 25 mM Tris-HCl pH 7.5, 2 mM DTT, 100 mM NaCl, 1 mM ADP, 5 mM MgCl2 (or 20 mM HEPES pH 7.5, 10 mM ADP), 25 C, then 0.025% glutaraldehyde 20 min; 'weaker' refers. The conditions noted are these: protein: recombinant; chain copies: 4; blunt.
Series [11] addresses T2, murine p53 (mp53). Described as above. The conditions noted are these: protein: recombinant; chain copies: 4; blunt.

The values that follow come from PMC5291249, “Two p53 tetramers bind one consensus DNA response element”.

B1: gadd45_0 (dsDNA)
DNA 1: ATGAAATGAACATGTCTAGGCATGCTGAATTAAT
DNA 2: ATTAATTCAGCATGCCTAGACATGTTCATTTCAT
As for B1, the binding result in [1], in series [2] and in series [3] was “binds” in each case.

B2: p21 RE (dsDNA)
DNA 1: GAACATGTCCCAACATGTTG
DNA 2: CAACATGTTGGGACATGTTC
Take B2: the binding result in series [4] is “binds”.

B3: non-specific control DNA (20 bp) (dsDNA)
DNA 1: TCGATCCTCTATGAATTAT
DNA 2: ATAATTCATAGAGGATCGA
Turning to B3, the binding result in series [5] (label: 5' IR700 both strands) was “no binding”.

B4: DNA6 (no spacer) (dsDNA)
DNA 1: ATGAAATAGACATGCCTAGACATGCCTGAATTAAT
DNA 2: ATTAATTCAGGCATGTCTAGGCATGTCTATTTCAT
Take B4: the binding result in series [6] and in [4] was “binds” throughout.

B5: gadd45_1 (dsDNA)
DNA 1: ATGAAATGAACATGTCTGAGGCATGCTGAATTAA
DNA 2: TTAATTCAGCATGCCTCAGACATGTTCATTTCAT
On to B5, for which the binding result in series [1] and in series [2] was “binds” each time.

B6: gadd45 RE (Table 1) (dsDNA)
DNA 1: GAACATGTCTAAGCATGCTG
DNA 2: CAGCATGCTTAGACATGTTC
Take B6: the binding result in [5] was “no binding”; in series [6] it was “binds”; in series [4] it was “binds”.

B7: MCK RE (dsDNA)
DNA 1: TGGCAAGCCTATGACATGGCCGGGGCCTGCCT
DNA 2: AGGCAGGCCCCGGCCATGTCATAGGCTTGCCA
As for B7, the binding result in [6] was “binds”.

B8: DNA1 (dsDNA)
DNA 1: AGACATGCCTAGACATGCCT
DNA 2: AGGCATGTCTAGGCATGTCT
As for B8, the binding result in series [7] and in [8] was “binds” in each case.

B9: DNA31 (1 bp spacer) (dsDNA)
DNA 1: AGCATTGGCTTTCTGGCCATCAGAGACATGCCTGAGACATGCCTAGCTCTGGCATAGAAGAGGCGCT
DNA 2: AGCGCCTCTTCTATGCCAGAGCTAGGCATGTCTCAGGCATGTCTCTGATGGCCAGAAAGCCAATGCT
With B9, the binding result in series [6] (blunt) and in series [4] (blunt) was “binds” each time.

B10: RGC RE (dsDNA)
DNA 1: TGCCTTGCCTGGACTTGCCTGGCCTTGCCT
DNA 2: AGGCAAGGCCAGGCAAGTTCAGGCAAGGCA
Turning to B10, the binding result in [6] is recorded as “binds”.

B11: bax RE (dsDNA)
DNA 1: GGGCTATATTTCACAAGTTAGAGACAAGCCTGGGCGTGGGCTATATT
DNA 2: AATATAGCCCACGCCCAGGCTTGTCTCTAACTTGTGAAATATAGCCC
With B11, the binding result in series [9] and in [6] was “binds” throughout.

B12: DNA21 (dsDNA)
DNA 1: AGCATTGGCTTTCTGGCCATCAGAGACATGCCTAGACATGCCTAGCTCTGGCATAGAAGAGGCGCT
DNA 2: AGCGCCTCTTCTATGCCAGAGCTAGGCATGTCTAGGCATGTCTCTGATGGCCAGAAAGCCAATGCT
On to B12, for which the binding result in [8] and in [6] (blunt) was “binds” in each case.

B13: Tigar_NS (spacer removed) (dsDNA)
DNA 1: AGCATTGGCTTTCTGGCCATCAGAGACATGTCCAGACTTGTCTAGCTCTGGCATAGAAGAGGCGCT
DNA 2: AGCGCCTCTTCTATGCCAGAGCTAGACAAGTCTGGACATGTCTCTGATGGCCAGAAAGCCAATGCT
Regarding B13, the binding result in [10] and in [11] was “binds” in each case.
